No end group written: not given here. FAM = 5,6-carboxyfluorescein
Legend:
Test in all cases: fluorescence polarisation
Nrd1 CID = target: T1, Nrd1 CID (S. cerevisiae, UniProt P53617 1-153)
T1 sequence: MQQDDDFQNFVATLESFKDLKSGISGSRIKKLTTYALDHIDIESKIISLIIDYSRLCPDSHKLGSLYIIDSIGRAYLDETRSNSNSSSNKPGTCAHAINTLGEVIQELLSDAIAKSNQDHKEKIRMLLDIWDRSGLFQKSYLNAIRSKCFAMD

Nrd1 CID L20D = target: T2, Nrd1 CID L20D (S. cerevisiae, UniProt P53617 1-153, L20D)
T2 sequence: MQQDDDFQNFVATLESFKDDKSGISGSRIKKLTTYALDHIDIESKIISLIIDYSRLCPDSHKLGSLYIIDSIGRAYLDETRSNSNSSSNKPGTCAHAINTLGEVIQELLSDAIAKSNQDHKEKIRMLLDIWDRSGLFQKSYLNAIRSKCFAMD

Nrd1 CID K21D = target: T3, Nrd1 CID K21D (S. cerevisiae, UniProt P53617 1-153, K21D)
T3 sequence: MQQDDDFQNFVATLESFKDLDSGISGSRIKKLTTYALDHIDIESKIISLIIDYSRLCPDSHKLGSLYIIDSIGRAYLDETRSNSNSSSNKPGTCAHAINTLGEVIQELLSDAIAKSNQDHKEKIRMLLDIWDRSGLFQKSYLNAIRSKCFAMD

Nrd1 CID S25D = target: T4, Nrd1 CID S25D (S. cerevisiae, UniProt P53617 1-153, S25D)
T4 sequence: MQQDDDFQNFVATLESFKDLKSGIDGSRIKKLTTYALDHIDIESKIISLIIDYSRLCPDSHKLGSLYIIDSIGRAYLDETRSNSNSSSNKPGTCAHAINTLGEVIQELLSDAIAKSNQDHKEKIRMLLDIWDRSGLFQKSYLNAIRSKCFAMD

Nrd1 CID R28D = target: T5, Nrd1 CID R28D (S. cerevisiae, UniProt P53617 1-153, R28D)
T5 sequence: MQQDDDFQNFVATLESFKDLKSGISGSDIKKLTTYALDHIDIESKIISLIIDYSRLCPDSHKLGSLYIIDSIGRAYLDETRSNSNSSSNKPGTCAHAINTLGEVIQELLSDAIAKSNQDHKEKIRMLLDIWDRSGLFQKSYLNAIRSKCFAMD

[1] = target: Trf4 NIM peptide (S. cerevisiae)

{FAM}-DDDEDDYTPSIS [Sen1 NIM peptide] was tested, and the Kd (Nrd1 CID) was 1200 ± 20 nM, the binding result (Nrd1 CID L20D) was “binds” and the binding result (Nrd1 CID K21D) was “binds”. {FAM}-DDDEDDYTPSIS [Sen1 NIM peptide]: binds (Nrd1 CID S25D); binds (Nrd1 CID R28D).

B1: Nrd1 CID (domain or fragment)
chain: MQQDDDFQNFVATLESFKDLKSGISGSRIKKLTTYALDHIDIESKIISLIIDYSRLCPDSHKLGSLYIIDSIGRAYLDETRSNSNSSSNKPGTCAHAINTLGEVIQELLSDAIAKSNQDHKEKIRMLLDIWDRSGLFQKSYLNAIRSKCFAMD
For B1, the Kd [1] was 900 nM.

From doi:10.1101/433045 (bioRxiv, 2020)
